Laboratory results published in patent US20250002610A1 (Genmab, published 2025).

Assays:
[1] = biological target: T1, FcγRIa (CD64 Protein, Human, Recombinant (ECD, His Tag)) (human, UniProt P12314 16-292); test: SPR (Biacore 8K), His-tagged FcγRIa captured on an anti-His chip, antibody as analyte, endpoint response against concentration
T1 construct: extracellular domain; Bought reagent; not shown: His tag
Method: (§1) Binding of BisG1-FAPα-FERL/DR4-FERR to immobilized human His-tagged FcγRs and FcRn was analyzed by SPR using a Biacore 8K SPR system (Cytiva). To this end, anti-His antibodies were covalently immobilized on the surface of Biacore Series S Sensor Chip CM5 (Cytiva, Cat. #29104988) using the Amine Coupling Kit (Cytiva, Cat. #BR100050) and a His Capture Kit (Cytiva, Cat. #29234602) according to the manufacturer's instructions. To assess antibody binding to immobilized human FcγRs, aliquots of the recombinant His-tagged FcγR proteins (Table 24) were diluted in HBS EP+Buffer pH 7.4 (Cytiva, Cat. #BR100669) and used to capture the FcγR proteins on the surface of the anti-His antibody-coated sensors using a flow rate of 10 μL/min and a contact time of 60 s. Captured levels ranged from 434 to 592 RU. After three start-up cycles of HBS-EP+Buffer, concentration ranges of BisG1-FAPα-FERL/DR4-FERR or IgG1-b12 antibodies (Table 25) were injected to generate binding curves on FcγR-captured sensors (active surface). For each antibody sample, a parallel flow cell without captured FcγRs was included (reference surface), which was used for RU background correction.
(§2) All sensorgrams were subtracted by the signal of the third start-up cycle with buffer only (mock analyte). […]

[2] = biological target: T2, FcγRIIa-H131 (CD32A Protein, Human, Recombinant (167 His, His Tag)) (human, UniProt P12318 34-218, limits assumed); test: SPR (Biacore 8K), His-tagged FcγRIIa-H131 captured on an anti-His chip, antibody as analyte, endpoint response against concentration
T2 construct: Bought reagent; not shown: His tag
T2 sequence (looked up): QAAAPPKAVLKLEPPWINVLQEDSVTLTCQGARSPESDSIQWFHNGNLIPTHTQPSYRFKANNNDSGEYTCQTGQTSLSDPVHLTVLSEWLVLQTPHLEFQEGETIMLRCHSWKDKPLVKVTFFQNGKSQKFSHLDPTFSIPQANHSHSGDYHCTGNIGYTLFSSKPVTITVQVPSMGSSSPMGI
Method: as §1, §2

T1 sequence (P12314 16-292): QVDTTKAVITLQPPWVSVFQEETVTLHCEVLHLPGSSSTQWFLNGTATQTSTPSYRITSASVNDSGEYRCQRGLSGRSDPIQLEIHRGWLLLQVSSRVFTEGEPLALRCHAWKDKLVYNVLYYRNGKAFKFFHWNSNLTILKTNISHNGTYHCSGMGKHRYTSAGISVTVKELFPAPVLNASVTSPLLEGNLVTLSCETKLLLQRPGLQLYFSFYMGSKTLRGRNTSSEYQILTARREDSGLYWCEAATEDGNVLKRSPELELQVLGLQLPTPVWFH

B1: IgG1-b12 (antibody)
heavy: not shown
light: EIVLTQSPGTLSLSPGERATFSCRSSHSIRSRRVAWYQHKPGQAPRLVIHGVSNRASGISDRFSGSGSGTDFTLTITRVEPEDFALYYCQVYGASSYTFGQGTKLERKRTVAAPSVFIFPPSDEQLKSGTASVVCLLNNFYPREAKVQWKVDNALQSGNSQESVTEQDSKDSTYSLSSTLTLSKADYEKHKVYACEVTHQGLSSPVTKSFNRGEC
notes: HIV gp120 antibody b12 with wild-type IgG1 Fc; also called IgG-b12
- binding result [1]: binds
- binding result [2]: binds
